Source: patent publication US20070166719A1 (NEW ENGLAND BIOLABS, published 2007)

Molecular target: T1, R-M-CspCI endonuclease-methyltransferase subunit (Citrobacter species 2144 (NEB#1398))
T1 construct: also called large subunit; R-M-subunit
T1 chain: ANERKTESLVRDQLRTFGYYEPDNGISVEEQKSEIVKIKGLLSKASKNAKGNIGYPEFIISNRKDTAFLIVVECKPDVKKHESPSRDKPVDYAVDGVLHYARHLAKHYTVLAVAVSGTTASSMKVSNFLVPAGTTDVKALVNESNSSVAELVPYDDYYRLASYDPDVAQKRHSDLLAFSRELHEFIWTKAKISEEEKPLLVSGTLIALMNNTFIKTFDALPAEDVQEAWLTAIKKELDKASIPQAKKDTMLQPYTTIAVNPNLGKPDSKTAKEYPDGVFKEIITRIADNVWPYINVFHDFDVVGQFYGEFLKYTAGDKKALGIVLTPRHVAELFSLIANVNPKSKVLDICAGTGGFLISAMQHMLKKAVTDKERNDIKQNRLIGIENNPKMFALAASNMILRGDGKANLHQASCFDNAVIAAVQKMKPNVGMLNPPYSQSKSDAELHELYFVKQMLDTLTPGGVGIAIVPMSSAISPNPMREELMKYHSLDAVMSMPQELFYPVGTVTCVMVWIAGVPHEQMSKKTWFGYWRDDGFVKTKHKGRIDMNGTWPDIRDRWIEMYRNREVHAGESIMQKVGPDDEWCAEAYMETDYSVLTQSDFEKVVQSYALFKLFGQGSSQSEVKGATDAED
Assay: HPLC of purified CspCI; molar ratio derived from the mass ratio 1:0.47

B1: CspCI specificity subunit (S-CspCI) (other)
chain: PKINDLFHLEYGHSLELNRLEQSTAADAVNFVGRAARNNGVTARVAPPPNLKPAAAGTISVALGGQGGAGVAFLQPRPYFCGRDVMVLTPKKHMTDQEKLWWVMCITANRFRFGFGRQANRTLKDLNLPAPQKTPSWVHTANPDAYQGVRSPASVHPVGTLAVSNWKAFILQDLFTIRKGQRLTKANMLPGTVPYIGASDTSNGVTAHIGQKPIHEGGTISVTYDGSIAEAFYQPSPFWASDAVNVLYPKGFTLTPATALFICAIIRMEKYRFNYGRKWHLERMRETVIRLPATATGAPDWDFMEKYIKTLPYSSQLQ
notes: also called small subunit; S-subunit
molar ratio (70 kDa : 35 kDa protein in the purified enzyme): 1.06 mol small subunit per mol large subunit
